B1: BMP4: human recombinant BMP4 (manufactured by R&D), BMP signal transduction pathway activating substance (protein, UniProt P12644 293-408, looked up)
Bone morphogenetic protein 4: SPKHHSQRARKKNKNCRRHSLYVDFSDVGWNDWIVAPPGYQAFYCHGDCPFPLADHLNSTNHAIVQTLVNSVNSSIPKACCVPTELSAISMLYLDEYDKVVLKNYQEMVVEGCGCR

Legend:
Type in all cases: cell-based
[1] = tested on: human iPS cells (1231A3 strain); test: Bright field observation of cell aggregates in suspension culture (aggregate shape, neuroepithelium / neural tissue formation); details: for aggregate growth and neuroepithelium formation (bright field): Example 7, SAG 30 nM, PMA 0.2 μM or human recombinant Shh 300 ng/ml day 0, BMP4 1.5 nM day 3
Experimental: The above subconfluent human iPS cells were treated with a cell dispersion solution by using TrypLE Select (Life Technologies), and further dispersed into single cells by a pipetting operation. Thereafter, the above human iPS cells dispersed into single cells were suspended in 100 μl of a serum-free medium in a non-cell-adhesive 96 well culture plate (PrimeSurface 96V-bottom plate, SUMITOMO BAKELITE) at 1.2×10^4 cells per well, and subjected to suspension culturing at 37° C., 5% CO2. As a serum-free medium (gfCDM+KSR) therefor, a 1:1 mixture of F-12 medium and IMDM medium supplemented with 10% KSR, 450 μM 1-monothioglycerol, 1× Chemically defined lipid concentrate was used. At the start of the suspension culturing (on day 0 after the start of suspension culturing, step 2 start), Y27632 (final concentration 20 μM) was added to the above serum-free medium. By day 2 after the start of suspension culturing, cell aggregates were formed (step 2 completed, and step 3 start). On day 3 after the start of suspension culturing, a serum-free medium (50 μl) free of Y27632 was added.
On day 6 after the start of suspension culturing, a half amount of the medium was changed with a medium free of Y27632 and containing or not containing human recombinant BMP4 (manufactured by R&D) to adjust the final concentration of exogenous human recombinant BMP4 to 1.5 nM (55 ng/ml, FIG. 1B) or to give a medium free of exogenous human recombinant BMP4 (FIG. 1A). As the half-medium exchange operation, a half volume of the medium in the culture vessel, namely 75 μl, was discarded, the above fresh serum-free medium (75 μl) was added to adjust the total medium amount to 150 μl. Thereafter, a half amount of the medium was changed with the above serum-free medium free of Y27632 and human recombinant BMP4 once per 2-4 days. […]
The thus-prepared subconfluent human iPS cells were treated with a cell dispersion solution by using TrypLE Select (Life Technologies), and further dispersed into single cells by a pipetting operation. Thereafter, the above human iPS cells dispersed into single cells were suspended in 100 μl of a serum-free medium in a non-cell-adhesive 96 well culture plate (PrimeSurface 96V-bottom plate, SUMITOMO BAKELITE) at 1.2×10^4 cells per well, and subjected to suspension culturing at 37° C., 5% CO2. As a serum-free medium (gfCDM+KSR) therefor, a 1:1 mixture of F-12 medium and IMDM medium supplemented with 10% KSR, 450 μM 1-monothioglycerol, 1× Chemically defined lipid concentrate was used. […] By day 2 after the start of suspension culturing, cell aggregates were formed (step 2 completed, step 3 start). On day 3 after the start of suspension culturing, a serum-free medium (50 μl) free of Y27632 and SAG was added. On day 6 after the start of suspension culturing, a half amount of the medium was changed with a medium free of Y27632 and containing or not containing human recombinant BMP4 (manufactured by R&D) to adjust the final concentration of exogenous human recombinant BMP4 to 1.5 nM (55 ng/ml, FIG. 1D) or to give a medium free of exogenous human recombinant BMP4 (FIG. 1C). As the half-medium exchange operation, a half volume of the medium in the culture vessel, namely 75 μl, was discarded, the above fresh serum-free medium (75 μl) was added to adjust the total medium amount to 150 μl. Thereafter, a half amount of the medium was changed with the above serum-free medium free of Y27632, SAG and human recombinant BMP4 once per 2-4 days. […]
The thus-prepared subconfluent human iPS cells were treated with the cell dispersion solution by using TrypLE Select (Life Technologies), further dispersed into single cells by pipetting operation, and the above human iPS cells dispersed into single cells were suspended in 100 μl of a serum-free medium at 1.2×10^4 cells per well of a non-cell-adhesive 96-well culture plate (PrimeSurface 96V-bottom plate, manufactured by SUMITOMO BAKELITE). Thereafter, the cells were subjected to suspension culturing at 37° C., 5% CO2. […]

[2] = tested on: human iPS cells (1231A3 strain); test: Immunostaining of aggregate cryosections for retinal tissue markers Chx10 and Rx; details: Example 7, BMP4 1.5 nM day 3, day 18
Source text: The above cell aggregates on day 19 after the start of suspension culturing were each fixed with 4% para-formaldehyde to give cryosections. These cryosections were immunostained for Chx10 (anti-Chx10 antibody, manufactured by Exalpha, sheep), which is one of the retinal tissue markers, or Rx (anti-Rx antibody, manufactured by TAKARA, guinea pig), which is one of the retinal tissue markers. In judgment of whether the above marker is positive in the immunostaining analysis, a fluorescence intensity which is not less than 2 times higher than that of the background was taken as positive.
The thus-prepared cell aggregates on day 18 after the start of suspension culturing, which were produced by adding SAG in step 2 from feeder-free iPS cells as a starting material, were fixed with 4% para-formaldehyde to produce frozen sections. These frozen sections were immunostained for Chx10 (anti-Chx10 antibody, Exalpha, sheep), which is one of the retinal tissue markers, or Rx (anti-Rx antibody, manufactured by TAKARA, guinea pig), which is one of the retinal tissue markers. These immunostained sections were observed under an inverted fluorescence microscope.
The cell aggregates on day 18 after the start of suspension culturing were fixed with 4% para-formaldehyde to produce frozen sections. These frozen sections were immunostained for Chx10 (anti-Chx10 antibody, Exalpha, sheep), which is one of the retinal tissue markers.

[3] = tested on: human iPS cells (201B7 strain); test: Bright field observation of cell aggregates in suspension culture (neuroepithelium formation); details: Example 6; StemFit; SAG 30 nM, Purmorphamine 0.2 μM or human recombinant Shh 50 ng/ml day 0; BMP4 1.5 nM day 3; day 18
Experimental: The thus-prepared subconfluent human iPS cells were treated with the cell dispersion solution by using TrypLE Select (manufactured by Life Technologies), further dispersed into single cells by pipetting operation, and the above human iPS cells dispersed into single cells were suspended in 100 μl of a serum-free medium at 1.2×10^4 cells per well of a non-cell-adhesive 96-well culture plate (PrimeSurface 96V-bottom plate, SUMITOMO BAKELITE). Thereafter, the cells were subjected to suspension culturing at 37° C., 5% CO2. As the serum-free medium (gfCDM+KSR) therefor, a serum-free medium which is a 1:1 mixture of F-12 medium and IMDM medium supplemented with 10% KSR, 450 μM 1-monothioglycerol, 1× Chemically defined lipid concentrate was used. At the time of the start of suspension culturing (day 0 after the start of suspension culturing, start of step 2), a serum-free medium supplemented with SAG (final concentration […]) as a Shh signal transduction pathway activating substance and Y27632 (20 μM) was used (FIG. 5A-D). By day 2 after the start of suspension culturing, cell aggregates were formed. On day 3 after the start of suspension culturing, a serum-free medium (50 μl) free of Y27632 and SAG was added. […] The thus-prepared cell aggregates were subjected to bright field observation under an inverted microscope (BIOREVO manufactured by KEYENCE) on day 18 after the start of suspension culturing.
The thus-prepared subconfluent human iPS cells were treated with the cell dispersion solution by using TrypLE Select (manufactured by Life Technologies), further dispersed into single cells by pipetting operation, and the above human iPS cells dispersed into single cells were suspended in 100 μl of a serum-free medium at 1.0×10^4 cells per well of a non-cell-adhesive 96-well culture plate (SUMILON SPHEROID V-bottom plate PrimeSurface 96V-bottom plate, SUMITOMO BAKELITE). Thereafter, the cells were subjected to suspension culturing at 37° C., 5% CO2. As the serum-free medium (gfCDM+KSR) therefor, a serum-free medium which is a 1:1 mixture of F-12 medium and IMDM medium supplemented with 10% KSR, 450 μM 1-monothioglycerol, 1× Chemically defined lipid concentrate was used. At the time of the start of suspension culturing (day 0 after the start of suspension culturing, start of step 2), the above serum-free medium supplemented with Y27632 (final concentration 20 μM) and further supplemented with SAG (final concentration 30 nM), Purmorphamine (manufactured by Wako, final concentration 0.2 μM), or human recombinant Shh (manufactured by R&D, Recombinant N-Terminus, final concentration 50 ng/ml) as a Shh signal transduction pathway activating substance was used (FIG. 8). On day 2 after the start of suspension culturing, a cell aggregates were formed. […]

[4] = Comparative Example 1, StemFit, no SAG, BMP4 1.5 nM on day 6, observed day 19
[5] = Example 2 Condition 2, Essential 8, no SAG, BMP4 1.5 nM day 6, day 18

Molecule | aggregate growth and neuroepithelium formation (bright field) ([1]; StemFit, day 18) | presence of Chx10-positive cells in the cell aggregate ([2]; SAG 30 nM or Shh 300 ng/ml day 0) | neuroepithelium formation (bright field) [3] | proportion of Chx10-positive cells in the total cells ([2]; PMA 0.2 μM day 0) | cell aggregates collapsed [1, 4] | neural tissue formation efficiency [1, 4] | cell aggregates collapsed [1, 5] | formation efficiency of neural tissue [1, 5]
Shh: human recombinant Shh (manufactured by R&D, Recombinant N-Terminus), Sonic hedgehog signal transduction pathway activating substance | cell aggregates grew and neuroepithelium was formed | contained Chx10-positive cells | neuroepithelium was formed |  |  |  |  | 
c1ccc2c(Oc3nc(Nc4ccc(N5CCOCC5)cc4)c4ncn(C5CCCCC5)c4n3)cccc2c1 [PMA, 9-cyclohexyl-N-[4-(4-morpholinyl)phenyl]-2-(l-naphthalenyloxy)-9H-purin-6-amine] | cell aggregates grew and neuroepithelium was formed |  | neuroepithelium was formed | not more than 60% |  |  |  | 
B1 |  |  |  |  | not less than 90% | poor | not less than 80% | poor

Reference: patent US11214772B2, “Production method for retinal tissue” (SUMITOMO DAINIPPON PHARMA CO., LTD., priority 2014, dated 2022)
